In data set [1] the test system is HeLa Kyoto. Nature of the data set: solubility in G1/S (NP-40 vs SDS abundance) (log2 ratio); higher = more soluble. As to conditions: cell cycle stage: G1/S.
For data set [2], the system named is HeLa Kyoto. Nature of the data set: melting temperature (median over replicates), in situ; higher = more thermally stable.
Data set [3] concerns HeLa Kyoto. Description: solubility change mitosis vs G1/S (difference of NP-40 vs SDS log2 ratios) (log2 ratio difference); higher = more soluble in mitosis.
The subject of data set [4] is HeLa Kyoto. Description: thermal stability score vs G1/S (z-score of summed log2 fold changes over temperatures); higher = more thermally stable than in G1/S.
[5] abbreviates: cell cycle stage: early G1 (4.5 h after nocodazole release).
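Wherever melting temperature (median over replicates), in situ is given: HeLa Kyoto cells synchronized by double thymidine or nocodazole block, proteins quantified by TMT10plex mass spectrometry, three independent biological replicates.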
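Wherever solubility change mitosis vs G1/S (difference of NP-40 vs SDS log2 ratios) is given: synchronized HeLa Kyoto cells (double thymidine block for G1/S, nocodazole release for mitosis), protein amounts in NP-40 versus SDS lysates quantified by mass spectrometry, three biological replicates.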
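Wherever solubility in G1/S (NP-40 vs SDS abundance) is given: HeLa Kyoto cells arrested at G1/S by double thymidine block, proteins quantified by TMT10plex mass spectrometry in mild NP-40 versus SDS extracts, three biological replicates.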
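Wherever thermal stability score vs G1/S (z-score of summed log2 fold changes over temperatures) is given: synchronized HeLa Kyoto cells, proteins quantified by TMT10plex mass spectrometry, three biological replicates, mitosis taken 0.5 h after nocodazole release, G1/S directly after double thymidine block.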

“MGAFLDKPKTEKHNAHGAGNGLRYGLSSMQGWRVEMEDAHTAVVGIPHGLEDWSFFAVYDGHAGSRVANYCSTHLLEHITTNEDFRAAGKSGSALELSVENVKNGIRTGFLKIDEYMRNFSDLRNGMDRSGSTAVGVMISPKHIYFINCGDSRAVLYRNGQVCFSTQDHKPCNPREKERIQNAGGSVMIQRVNGSLAVSRALGDYDYKCVDGKGPTEQLVSPEPEVYEILRAEEDEFIILACDGIWDVMSNEELCEYVKSRLEVSDDLENVCNWVVDTCLHKGSRDNMSIVLVCFSNAPKVSDEAVKKDSELDKHLESRVEEIMEKSGEEGMPDLAHVMRILSAENIPNLPPGGGLAGKRNVIEAVYSRLNPHRESDGASDEAEESGSQGKLVEALRQMRINHRGNYRQLLEEMLTSYRLAKVEGEESPAEPAATATSSNSDAGNPVTMQESHTESESGLAELDSSNEDAGTKMSGEKI [PPM1B]”: in data set [1], the “solubility in G1/S (log2)” value is -0.164. For the same sequence, the figures for the melting temperature in data set [2] (cell cycle stage: G1/S) and in data set [2] (cell cycle stage: mitosis) were 52.9 °C and 52.6 °C, respectively. Further, the “solubility change mitosis (log2)” value in data set [3] came to 0.0659. In addition, the thermal stability score in data set [4] (setting [5]) is 0.54; in data set [4] (cell cycle stage: mitosis), -0.803.

Consider “MGCAEGKAVAAAAPTELQTKGKNGDGRRRSAKDHHPGKTLPENPAGFTSTATADSRALLQAYIDGHSVVIFSRSTCTRCTEVKKLFKSLCVPYFVLELDQTEDGRALEGTLSELAAETDLPVVFVKQRKIGGHGPTLKAYQEGRLQKLLKMNGPEDLPKSYDYDLIIIGGGSGGLAAAKEAAQYGKKVMVLDFVTPTPLGTRWGLGGTCVNVGCIPKKLMHQAALLGQALQDSRNYGWKVEETVKHDWDRMIEAVQNHIGSLNWGYRVALREKKVVYENAYGQFIGPHRIKATNNKGKEKIYSAERFLIATGERPRYLGIPGDKEYCISSDDLFSLPYCPGKTLVVGASYVALECAGFLAGIGLDVTVMVRSILLRGFDQDMANKIGEHMEEHGIKFIRQFVPIKVEQIEAGTPGRLRVVAQSTNSEEIIEGEYNTVMLAIGRDACTRKIGLETVGVKINEKTGKIPVTDEEQTNVPYIYAIGDILEDKVELTPVAIQAGRLLAQRLYAGSTVKCDYENVPTTVFTPLEYGACGLSEEKAVEKFGEENIEVYHSYFWPLEWTIPSRDNNKCYAKIICNTKDNERVVGFHVLGPNAGEVTQGFAAALKCGLTKKQLDSTIGIHPVCAEVFTTLSVTKRSGASILQAGCUG [TXNRD1]”, for which the “solubility in G1/S (log2)” value in data set [1] was determined as 0.0191. Also, the melting temperature in data set [2] (cell cycle stage: G1/S) turned out to be 52 °C; in data set [2] (cell cycle stage: mitosis), 51.9 °C. Moreover, the “solubility change mitosis (log2)” value in data set [3] is -0.101. The thermal stability score in data set [4] (setting [5]) was 1.37; in data set [4] (cell cycle stage: mitosis), -1.27.

As for “MGCAPSIHVSQSGVIYCRDSDESSSPRQTTSVSQGPAAPLPGLFVQTDAADAIPPSRASGPPSVARVRRARTELGSGSSAGSAAPAATTSRGRRRHCCSSAEAETQTCYTSVKQVSSAEVRIGPMRLTQDPIQVLLIFAKEDSQSDGFWWACDRAGYRCNIARTPESALECFLDKHHEIIVIDHRQTQNFDAEAVCRSIRATNPSEHTVILAVVSRVSDDHEEASVLPLLHAGFNRRFMENSSIIACYNELIQIEHGEVRSQFKLRACNSVFTALDHCHEAIEITSDDHVIQYVNPAFERMMGYHKGELLGKELADLPKSDKNRADLLDTINTCIKKGKEWQGVYYARRKSGDSIQQHVKITPVIGQGGKIRHFVSLKKLCCTTDNNKQIHKIHRDSGDNSQTEPHSFRYKNRRKESIDVKSISSRGSDAPSLQNRRYPSMARIHSMTIEAPITKVINIINAAQENSPVTVAEALDRVLEILRTTELYSPQLGTKDEDPHTSDLVGGLMTDGLRRLSGNEYVFTKNVHQSHSHLAMPITINDVPPCISQLLDNEESWDFNIFELEAITHKRPLVYLGLKVFSRFGVCEFLNCSETTLRAWFQVIEANYHSSNAYHNSTHAADVLHATAFFLGKERVKGSLDQLDEVAALIAATVHDVDHPGRTNSFLCNAGSELAVLYNDTAVLESHHTALAFQLTVKDTKCNIFKNIDRNHYRTLRQAIIDMVLATEMTKHFEHVNKFVNSINKPMAAEIEGSDCECNPAGKNFPENQILIKRMMIKCADVANPCRPLDLCIEWAGRISEEYFAQTDEEKRQGLPVVMPVFDRNTCSIPKSQISFIDYFITDMFDAWDAFAHLPALMQHLADNYKHWKTLDDLKCKSLRLPSDS [PDE8B]”, in data set [1], the “solubility in G1/S (log2)” value was -0.134. The melting temperature in data set [2] (cell cycle stage: G1/S) came to 49 °C; in data set [2] (cell cycle stage: mitosis), 49.1 °C. In addition, the “solubility change mitosis (log2)” value in data set [3] was -0.122. Besides, the thermal stability score in data set [4] (setting [5]) came to 0.505; in data set [4] (cell cycle stage: mitosis), 0.304.

For the sequence “MGCDGGTIPKRHELVKGPKKVEKVDKDAELVAQWNYCTLSQEILRRPIVACELGRLYNKDAVIEFLLDKSAEKALGKAASHIKSIKNVTELKLSDNPAWEGDKGNTKGDKHDDLQRARFICPVVGLEMNGRHRFCFLRCCGCVFSERALKEIKAEVCHTCGAAFQEDDVIMLNGTKEDVDVLKTRMEERRLRAKLEKKTKKPKAAESVSKPDVSEEAPGPSKVKTGKPEEASLDSREKKTNLAPKSTAMNESSSGKAGKPPCGATKRSIADSEESEAYKSLFTTHSSAKRSKEESAHWVTHTSYCF [RTFDC1]”, in data set [1], the “solubility in G1/S (log2)” value turned out to be 0.0863. The melting temperature stood at 47.6 °C in data set [2] (cell cycle stage: G1/S) and 50.2 °C in data set [2] (cell cycle stage: mitosis). Also, the “solubility change mitosis (log2)” value in data set [3] is -0.0475. Moreover, the thermal stability score amounted to 1.24 in data set [4] (setting [5]) and 2.61 in data set [4] (cell cycle stage: mitosis).

Take “MGCSAKARWAAGALGVAGLLCAVLGAVMIVMVPSLIKQQVLKNVRIDPSSLSFNMWKEIPIPFYLSVYFFDVMNPSEILKGEKPQVRERGPYVYREFRHKSNITFNNNDTVSFLEYRTFQFQPSKSHGSESDYIVMPNILVLGAAVMMENKPMTLKLIMTLAFTTLGERAFMNRTVGEIMWGYKDPLVNLINKYFPGMFPFKDKFGLFAELNNSDSGLFTVFTGVQNISRIHLVDKWNGLSKVDFWHSDQCNMINGTSGQMWPPFMTPESSLEFYSPEACRSMKLMYKESGVFEGIPTYRFVAPKTLFANGSIYPPNEGFCPCLESGIQNVSTCRFSAPLFLSHPHFLNADPVLAEAVTGLHPNQEAHSLFLDIHPVTGIPMNCSVKLQLSLYMKSVAGIGQTGKIEPVVLPLLWFAESGAMEGETLHTFYTQLVLMPKVMHYAQYVLLALGCVLLLVPVICQIRSQVGAGQRAARADSHSLACWGKGASDRTLWPTAAWSPPPAAVLRLCRSGSGHCWGLRSTLASFACRVATTLPVLEGLGPSLGGGTGS [SCARB1]”: the “solubility in G1/S (log2)” value in data set [1] came to 0.27. For the same sequence, the melting temperature worked out at 56.6 °C in data set [2] (cell cycle stage: G1/S) and 63.1 °C in data set [2] (cell cycle stage: mitosis). Further, the “solubility change mitosis (log2)” value in data set [3] is -0.0198. The thermal stability score is -1.41 in data set [4] (setting [5]) and -1.54 in data set [4] (cell cycle stage: mitosis).

The values above are taken from the supplement of paper PMC5998384.
